Experimental data from publication PMC8857205.

Target: Glu14 (UniProt position 14, GAILAEVIGTT)
Test: NMR
[1] = TPP+-bound, cited from earlier work

Substance | pKa [1] | pKa (45 °C, 20 mM NaCl plus buffer salts (total ionic strength not stated), 50 mM sodium acetate, 50 mM MOPS, 50 mM MES, 50 mM bicine, 2 mM TCEP, 0.01% DSS, F4-TPP+-bound (saturated), folded dimer in bicelles)
EmrE (multidrug transporter, small multidrug resistance family), wild type (Escherichia coli) | 6.8 ± 0.1 | –
S64V-EmrE (Escherichia coli; S64V) | 7.0 ± 0.1 | 6.9 ± 0.1
